Data: patent publication US11229679B2, “Compositions for treating heart disease by inhibiting the action of mAKAPβ” (Anchored RSK3 Inhibitors, LLC, priority 2013, dated 2022)

How the values were obtained:
[1] = tested on: neonatal rat ventricular myocytes; assay: Neonatal rat ventricular myocyte hypertrophy (cross-section area, ANF expression); format: cell-based; settings: for agonist-induced myocyte hypertrophy: BI-D1870 10 μmol/L, SL0101 50 μmol/L, PE, LIF or FBS, 2 days; for PE-induced hypertrophy: expressed in neonatal myocytes
Procedure: Neonatal rat myocytes isolation and culture: 1-3 day old Sprague-Dawley rats were decapitated and the excised hearts placed in 1×ADS Buffer (116 mmol/L NaCl, 20 mmol/L HEPES, 1 mmol/L NaH2PO4, 5.5 mmol/L glucose, 5.4 mmol/L KCl, 0.8 mmol/L MgSO4, pH 7.35). The atria were carefully removed and the blood washed away. The ventricles were minced and incubated with 15 mL 1×ADS Buffer containing 3.3 mg type II collagenase (Worthington, 230 U/mg) and 9 mg Pancreatin (Sigma) at 37° C. while shaking at 80 RPM. After 15 minutes, the dissociated cardiac myocytes were separated by centrifugation at 50×g for 1 minute, resuspended in 4 mL horse serum and incubated 37° C. with occasional agitation. The steps for enzymatic digestion and isolation of myocytes were repeated 10-12 times to maximize yield. The myocytes were pooled and spun down again at 50×g for 2 minutes and resuspended in Maintenance Medium (DMEM:M199, 4:1) supplemented with 10% horse serum and 5% fetal bovine serum. To remove any contaminating fibroblasts, the cells were pre-plated for 1 hour before plating on gelatin-coated tissue culture plasticware. This procedure yields >90% pure cardiac myocytes. After 1 day in culture, the media was changed to maintenance medium containing 0.1 mmol/L bromodeoxyuridine to suppress fibroblast growth. Experiments were initiated 1 day after myocyte isolation. Adenoviral infection was performed by addition of adenovirus (multiplicity of infection=5-50) to the media. Plasmids and siRNA oligonucleotides were transfected using Transfast (Promega) and Dharmafect (Thermofisher), respectively, as recommended by the manufacturers using cells cultured in maintenance medium supplemented with 4% horse serum. Starting the day after gene transduction, the cells were treated for as long as 2 days, as indicated for each experiment. Immunocytochemistry: Cultured neonatal cardiomyocytes on plastic coverslips were fixed in 3.7% formaldehyde in PBS, permeabilized with 0.3% Triton X-100 in PBS, and blocked with PBS containing 0.2% BSA and 1% horse serum for 1 hour. The slides were then sequentially incubated for 1 hour with primary and Alexa fluorescent dye-conjugated specific-secondary antibodies (Invitrogen, 1:1000) diluted in blocking buffer. The slips were washed three times with blocking buffer. 1 μg/mL Hoechst 33258 was included in the last wash stop to label nuclei. Slides were sealed in SlowFade Gold antifade buffer (Invitrogen) for fluorescent microscopy. Wide-field images were acquired using a Leica DMI 6000 Microscope. Morphometry: Morphometric data was acquired using IPLab Software. […] For adult mouse cardiac myocytes, the maximum lengths perpendicular (width) or parallel (length) to the myofibrils were measured for >100 freshly dissociated myocytes per heart.

[2] = tested on: Noonan syndrome mouse model (Raf1L613V knock-in); settings: Wu 2011; cited from earlier work
NHE1 = settings: Cuello 2007; cited from earlier work
RSK = RSK activation in neonatal rat ventricular myocytes (pan-RSK phospho-S218 Western blot); format: cell-based; settings: 10 μmol/L PE, 1 hour
Excerpt: RSK family members can be activated in most cell types by ERK, but not c-Jun N-terminal kinases or p38 (Anjum 2008). ERK phosphorylation is permissive for PDK1 phosphorylation of the RSK N-terminal kinase domain, such that PDK1 phosphorylation of RSK S^218 is indicative of full activation of the enzyme (FIG. 4A). […] The α-adrenergic stimulation with phenylephrine (PE) induced RSK phosphorylation 3-fold by both MEK1/2-dependent (that activates ERK1/2) and MEK5-dependent (that activates ERK5) mechanisms (FIG. 22).
Immunoprecipitations: HEK293 and COS-7 cells were transfected with Lipofectamine 2000 (Invitrogen) or Polyethylenimine “Max” (Polysciences). Cells (including myocytes) were lysed in buffer (20 mmol/L HEPES, pH 7.4, 150 mmol/L NaCl, 5 mmol/L EDTA, 0.5% Triton, 50 mmol/L NaF, 1 mmol/L sodium orthovanadate, 1 mmol/L DTT, and protease inhibitors). After centrifugation at 10,000×g for 10 minutes at 4° C., the clarified extracts were used for immunoprecipitation using appropriate antibodies (10 μg purified antibody or 1-5 μL whole serum) and 20 μL protein G sepharose (Millipore, Fastflow) for 3 hours to overnight at 4° C. The beads were washed 3-5 times with lysis buffer, and the immunoprecipitated proteins were eluted with 1× Laemmli buffer for western blotting. […]

RSK3 = target: T1, RSK3 (Homo sapiens, UniProt Q15349); assay: Surface plasmon resonance of His-RSK3 binding to immobilized His-mAKAP 1286-1833
T1 construct: bacterially expressed His-tagged mAKAP 1286 to 1833 and full-length RSK3 was analyzed by surface plasmon resonance; His; made in house; host or cells: bacteria (pET30 / pGEX-4T vectors)
T1 sequence (Q15349 whole entry): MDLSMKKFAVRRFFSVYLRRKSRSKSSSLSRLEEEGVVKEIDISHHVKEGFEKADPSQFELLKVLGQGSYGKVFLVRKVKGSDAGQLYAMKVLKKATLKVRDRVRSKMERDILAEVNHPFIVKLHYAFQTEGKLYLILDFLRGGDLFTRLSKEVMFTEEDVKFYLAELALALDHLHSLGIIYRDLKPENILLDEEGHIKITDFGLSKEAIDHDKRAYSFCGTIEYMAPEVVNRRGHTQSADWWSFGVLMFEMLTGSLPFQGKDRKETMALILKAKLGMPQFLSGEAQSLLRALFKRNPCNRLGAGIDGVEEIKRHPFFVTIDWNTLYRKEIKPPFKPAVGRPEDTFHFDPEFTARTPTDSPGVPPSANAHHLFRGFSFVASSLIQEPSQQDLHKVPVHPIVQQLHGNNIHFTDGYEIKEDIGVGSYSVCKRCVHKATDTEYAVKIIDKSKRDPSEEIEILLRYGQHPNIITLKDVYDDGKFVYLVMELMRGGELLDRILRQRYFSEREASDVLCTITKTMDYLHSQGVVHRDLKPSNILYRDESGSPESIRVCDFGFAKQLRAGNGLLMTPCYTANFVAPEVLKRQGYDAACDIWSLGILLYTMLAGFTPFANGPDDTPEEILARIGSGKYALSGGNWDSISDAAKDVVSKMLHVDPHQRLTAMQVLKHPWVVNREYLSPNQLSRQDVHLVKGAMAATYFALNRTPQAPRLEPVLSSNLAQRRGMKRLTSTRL
Procedure: Surface Plasmon Resonance: SPR analysis was performed using a BIAcore T100. 200 resonance units His-tagged mAKAP 1286-1833 were covalently immobilized using NHS (N-hydroxysuccinamide) and EDC [1-ethyl-3-(3-(dimethylamino)propyl)carbodiimide] (Biacore amine coupling kit) to the surface of a sensor chip (BIAcore type CM5). His-RSK3 analytes (6.25-200 nmol/L) in HBS buffer (10 mmol/L Hepes, pH 7.4, 150 mmol/L NaCl, and 0.005% Surfactant P20) were injected at a flow rate of 30 μL/min for 5 minutes, followed by buffer alone for another 5 minutes. Sensorgrams were processed by BIAcore T100 evaluation software.
For phosphorylated His-RSK3, 20 μg His-RSK3 was phosphorylated with 2 μg ERK2 (Millipore, 14-550) and/or PDK1 (Sigma, P7498) for 5 hours in kinase buffer (20 mmol/L MOPS, pH 7.2, 25 mmol/L β-glycerol phosphate, 5 mmol/L EGTA, 1 mmol/L sodium orthovanadate, 1 mmol/L DTT) with 0.5 mmol/L MgATP. Phospho-His-RSK3 was purified using His-binding beads and concentrated before use.

[3] = tested on: HA-RSK3 fragments, HA-RSK2; assay: Co-immunoprecipitation of tagged mAKAP and RSK proteins co-expressed in COS-7 cells; format: binding
Procedure: (§1) Immunoprecipitations: HEK293 and COS-7 cells were transfected with Lipofectamine 2000 (Invitrogen) or Polyethylenimine “Max” (Polysciences). Cells (including myocytes) were lysed in buffer (20 mmol/L HEPES, pH 7.4, 150 mmol/L NaCl, 5 mmol/L EDTA, 0.5% Triton, 50 mmol/L NaF, 1 mmol/L sodium orthovanadate, 1 mmol/L DTT, and protease inhibitors). After centrifugation at 10,000×g for 10 minutes at 4° C., the clarified extracts were used for immunoprecipitation using appropriate antibodies (10 μg purified antibody or 1-5 μL whole serum) and 20 μL protein G sepharose (Millipore, Fastflow) for 3 hours to overnight at 4° C. The beads were washed 3-5 times with lysis buffer, and the immunoprecipitated proteins were eluted with 1× Laemmli buffer for western blotting. Western blots were developed using horseradish peroxidase-conjugated donkey secondary antibodies, Supersignal West Chemiluminescent Substrates (Thermo Scientific) and X-ray film or a Fujifilm LAS-3000 imaging system.

RSK3 and mAKAPβ = assay: Co-immunoprecipitation of endogenous RSK3 with mAKAPβ complexes from PE-treated myocytes; format: cell-based, rat; settings: expressed in neonatal myocytes
Procedure: as §1

**Q.** Which agonist-induced myocyte hypertrophy [1] does the source give for CC(C)CCN1c2nc(Nc3cc(F)c(O)c(F)c3)ncc2N(C)C(=O)C1C (stereo not drawn) [BI-D1870, reference compound] here?
**A.** inhibited

**Q.** Which “progression of cardiac hypertrophy cardiomyopathy and other Noonan characteristics” value [2] does the source give for O=C(NOC[C@H](O)CO)c1ccc(F)c(F)c1Nc1ccc(I)cc1F [PD0325901] here?
**A.** attenuated progression

**Q.** Which agonist-induced myocyte hypertrophy [1] does the source give for CC(=O)OC1C(C)OC(Oc2c(-c3ccc(O)cc3)oc3cc(O)cc(O)c3c2=O)C(O)C1OC(C)=O (stereo not drawn) [SL0101, reference compound] here?
**A.** inhibited

**Q.** Which “α-adrenergic-induced NHE1 phosphorylation” value (NHE1) does the source give for Cc1ccc(-c2c(C(=O)CF)n(CCCO)c3ncnc(N)c23)cc1 [fmk] here?
**A.** blocked

**Q.** Which “induction of RSK phosphorylation” value (RSK) does the source give for CNC[C@H](O)c1cccc(O)c1 [phenylephrine] here?
**A.** 3 fold

B1: mAKAP 1286 to 1833: bacterially expressed His-tagged mAKAP fragment, residues 1286 to 1833 (protein)
chain: VYSLHNVELHEDSHTPFLKSSPKFTGTTQPTVLTKSLSKDSSFSSTKSLPDLLGGSGLVRPYSCHSGDLSQNSGSESGIVSEGDNEMPTNSDMSLFSMVDGSPSNPETEHPDPQMGDAANVLEQKFKDNGESIKLSSVSRASVSPVGCVNGKAGDLNSVTKHTADCLGEELQGKHDVFTFYDYSYLQGSKLKLPMIMKQPQSEKAHVEDPLLGGFYFDKKSCKAKHQASESQPDAPPHERILASAPHEMGRSAYKSSDIEKTFTGIQSARQLSLLSRSSSVESLSPGGDLFGLGIFKNGSDSLQRSTSLESWLTSYKSNEDLFSCHSSGDISVSSGSVGELSKRTLDLLNRLENIQSPSEQKIKRSVSDMTLQSSSQKMPFAGQMSLDVASSINEDSPASLTELSSSDELSLCSEDIVLHKNKIPESNASFRKRLNRSVADESDVNVSMIVNVSCTSACTDDEDDSDLLSSSTLTLTEEELCLKDEDDDSSIATDDEIYEESNLMSGLDYIKNELQTWIRPKLSLTREKKRSGVTDEIKVNKDGGGNE
modifications: left off: small tags and cut ends
**Q.** Which “decrease of RSK3 binding affinity for mAKAP” value (RSK3; RSK3 previously phosphorylated by ERK) does the source give for B1 here?
**A.** 5 fold

**Q.** What about the “decrease of RSK3 binding affinity for mAKAP” value (RSK3; RSK3 previously phosphorylated by both ERK and PDK1) of the same molecule?
**A.** 8 fold

**Q.** What about the “KD of binding to full-length RSK3” value (RSK3; unphosphorylated His-RSK3) of the same molecule?
**A.** nanomolar

B2: mAKAP RBD: main RSK3 binding domain of mAKAP, fragment encompassing residues 1694 to 1833; competing binding peptide (protein)
chain: ELSLCSEDIVLHKNKIPESNASFRKRLNRSVADESDVNVSMIVNVSCTSACTDDEDDSDLLSSSTLTLTEEELCLKDEDDDSSIATDDEIYEESNLMSGLDYIKNELQTWIRPKLSLTREKKRSGVTDEIKVNKDGGGNE
modifications: left off: small tags and cut ends
**Q.** What does the source list for B2?
**A.** PE-induced hypertrophy [1]: inhibited; binding to N-terminally truncated RSK3 mutant (HA-RSK3 DN30) or HA-tagged full-length RSK2 [3]: not

B3: green fluorescent protein-mAKAP RBD fusion protein: myc-GFP-mAKAP RSK binding domain (RBD) fusion protein; mAKAP 1694-1833 (protein)
chain: ELSLCSEDIVLHKNKIPESNASFRKRLNRSVADESDVNVSMIVNVSCTSACTDDEDDSDLLSSSTLTLTEEELCLKDEDDDSSIATDDEIYEESNLMSGLDYIKNELQTWIRPKLSLTREKKRSGVTDEIKVNKDGGGNE
modifications: left off: small tags and cut ends; large carriers
**Q.** What does the source list for B3?
**A.** PE-induced hypertrophy [1]: markedly inhibited; association of endogenous RSK3 and mAKAPβ (RSK3 and mAKAPβ): competed
